This note sets out measurements from patent publication US20210381002A1 (CORNELL UNIVERSITY, published 2021).

Data set [1] concerns the molecule itself. The data set is described as follows: Bis-Tris gel of 293T supernatant (self-association, tetramer formation). As to the method: FIG. 14. Assessment of supernatants of catalase constructs for monomeric and multimeric catalase separation. Samples were assessed on Bis-Tris gel, blotted and probed with anti-catalase antibody (ABCAM: ab88067); predicted band sizes, 60 kDa for monomer and 240 kDa for tetramer, aAll 3 constructs secreted only the monomeric construct.
Three modifications of the human catalase sequence were assessed: hCatNT⁻, hCatWL⁻ and hCatNT⁻WL⁻. […] However, of the 3 constructs, only the wrapping loop domain deletion (hCatWD⁻) retained catalase activity (FIG. 5B). […] Intravenous administration to mice led to detection of hCatWD⁻ DNA in the liver and lung (typical for AAVrh.10 vectors) (Chiuchiolo et al., 2013), and importantly, easily detectable human catalase activity in serum, e.g., LEX 5a generates a secreted, functional catalase monomer (FIG. 7A-C).

Data set [2] deals with the molecule itself. Briefly: Sephacryl size exclusion column fractions, anti-HA Western (self-association, tetramer formation). As to the method:
FIGS. 6A-B. Modified SOD3 construct. A) Secretion of the modified SOD3 constructs. Western (anti-HA tag) of supernatant of 293T cells transfected with: lane 1—mock; lane 2—unmodified HA tagged SOD3; lane 3—SOD3hd⁻. Only SOD3hd⁻ is in the supernatant. […] Approximate MW are calculated from column specifications.
Two modifications were made in a single SOD3 variant (hSOD3hd⁻), including a deletion of residues 50-59 replaced with an in frame copy of the residue segment from 74-80, and a deletion of residues 212-240, the heparin-binding domain. […] Intravenous administration to Balb/c mice led to vector DNA in liver and lung (liver 50-fold higher) and SOD activity in serum (FIG. 7D-F). LEX 5c, LEX 5d. Based on the in vitro and in vivo functional data of LEX 5a and LEX 5b, LEX 5c and LEX 5d were generated to express both catalase and SOD3 modified monomers. Based on expressing 2 genes in 1 AAV construct (De et al., 2008; Wang et al., 2010; Watanabe et al., 2010; Mao et al., 2011; Rosenberg et al., 2012; Hicks et al., 2012; Xie et al., 2014; Hicks et al., 2015; Pagovich et al., 2016; Liu et al., 2016), both […] use a single promoter, with the 2 modified cDNA separated by a furin 2A cleavage site which directs cleavage of the resulting precursor protein to generate the 2 function proteins. […]

B1: human catalase monomer with a 20 amino acid deletion from the wrapping loop domain (hCatWL^-) (enzyme)
chain: ADSRDPASDQMQHWKEQRAAQKADVLTTGAGNPVGDKLNVITVGPRGPLLVQDVVFTDEMAHFDRERIPERVVHAKGAGAFGYFEVTHDITKYSKAKVFEHIGKKTPIAVRFSTVAGESGSADTVRDPRGFAVKFYTEDGNWDLVGNNTPIFFIRDPILFPSFIHSQKRNPQTHLKDPDMVWDFWSLRPESLHQVSFLFSDRGIPDGHRHMNGYGSHTFKLVNANGEAVYCKFHYKTDQGIKNLSVEDAARLSQEDPDYGIRDLFNAIATGKYPSWTFYIQVMTFNQAETFPFNPFDLTKVWPHKDYPLIPVGKLVLNRNPVNYFAEVEQIAFDPSNMPPGIEASPDKMLQGRLFAYPDTHRHRLGPNYLHIPVNCPYRAPNYYPNSFGAPEQQPSALEHSIQYSGEVRRFNTANDDNVTQVRAFYVNVLNEEQRKRLCENIAGHLKDAQIFIQKKAVKNFTEVHPDYGSHIQALLDKYNAEKPKNAIHTFVQSGSHLAAREKANLYPYDVPDYA
notes: also called hCatWD^-
Take B1: the binding result in data set [1] is “no binding”.

B2: modified human superoxide dismutase 3 (hSOD3hd^-): residues 50-59 replaced with a copy of 74-80, and heparin-binding domain residues 212-240 deleted (enzyme)
chain: WTGEDSAEPNSDSAEWIRDMYAKVTEIWQEVATLDAAQHAACQVQPSATLDAAQPRVTGVVLFRQLAPRAKLDAFFALEGFPTEPNSSSRAIHVHQFGDLSQGCESTGPHYNPLAVPHPQHPGDFGNFAVRDGSLWRYRAGLAASLAGPHSIVGRAVVVHAGEDDLGRGGNQASVENGNAGRRLACCVVG
notes: also called expression product of LEX 5b; not shown: Hemagglutinin (HA) tag used for detection with anti-HA
Consider B2, for which the binding result in data set [2] is recorded as “no binding”.
